The target in this experiment is T1, 6xHis tagged BCL-xL (UniProt Q07817-1 2-212).
T1 construct: BCL-xL; The cloning section gives BCL-xL only an N-terminal ULP1-cleavable SMT3 tag; also called self-made 6×His tagged BCL-xL; WT BCL-xL; source: self-made; E. coli BL21 (DE3) codon plus
The experiment is described as follows: AlphaScreen or HTRF; AlphaScreen displacement binding assay: Biotin-Bim or Biotin-Bad (15 nM for WT, 50 nM for mutants), 6xHis BCL-2 (25 nM WT, 50 nM mutants) or BCL-xL (10 nM WT, 50 nM mutants), compounds (753b, WH244) as displacers; anti-6xHis acceptor and streptavidin donor beads; 25 mM HEPES pH 7.5, 150 mM NaCl, 0.1% BSA, 0.005% tween 20; room temperature. Particulars: both partners purified. On the technique in general: Bead proximity is the source of the signal in Alpha formats.

No end group written: not given here. *: point of attachment. Biotin = O=C1N[C@H]2[C@H](CS[C@H]2CCCCC(=O)*)N1

T1 sequence (Q07817 2-212): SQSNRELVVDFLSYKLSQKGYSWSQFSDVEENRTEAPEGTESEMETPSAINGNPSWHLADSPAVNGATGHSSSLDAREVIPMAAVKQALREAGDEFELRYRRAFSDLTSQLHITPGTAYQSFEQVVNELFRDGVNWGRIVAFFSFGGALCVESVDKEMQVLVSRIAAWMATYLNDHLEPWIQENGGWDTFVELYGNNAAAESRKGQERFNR

B1: Biotin-tagged Bad (peptide)
peptide: Biotin-LWAAQRYGRELRRMSDEFEGSFKGL
notes: Bad peptide (BH3 stretch); also called Biotin-[residues removed]
For the molecule B1, the binding result is on record as “binds”.

Values taken from PMC10979003 (Nature Communications, 2024).
